{
  "source": "patent US20250346657A1",
  "about": "(INTERVET, published 2025)",
  "target": "T1, feline NGF (feline, UniProt A0ABI7YSK6 122-241)",
  "T1 construct": "domain: C-terminal portion; also called fNGF; feline beta-NGF",
  "experiment": "ELISA, feline NGF",
  "data": [
    {"binder": "human-feline chimeric Fulranumab (antibody, Chains from the 'List of heavy and light chains to make human-feline chimeric and felinized antibodies'; also called Ful Chimeric; Ful Chim) heavy: EVQLVESGGGLVQPGGSLRLSCAASGFTLRSYSMNWVRQAPGKGLEWVSYISRSSHTIFYADSVKGRFTISRDNAKNSLYLQMDSLRDEDTAMYYCARVYSSGWHVSDYFDYWGQGILVTVSSASTTAPSVFPLAPSCGTTSGATVALACLVLGYFPEPVTVSWNSGALTSGVHTFPAVLQASGLYSLSSMVTVPSSRWLSDTFTCNVAHPPSNTKVDKTVRKTDHPPGPKPCDCPKCPPPEMLGGPSIFIFPPKPKDTLSISRTPEVTCLVVALGPDDSDVQITWFVDNTQVYTAKTSPREEQFASTYRVVSVLPILHQDWLKGKEFKCKVNSKSLPSPIERTISKAKGQPHEPQVYVLPPAQEELSRNKVSVTCLIKSFHPPDIAVEWEITGQPEPENNYRTTPPQLDSDGTYFVYSKLSVDRSHWQRGNTYTCSVSHEALHSHHTQKSLTQSPGK light: AIQLTQSPSSLSASVGDRVTITCRASQGISSALAWYQQKPGKAPKLLIYDASSLESGVPSRFSGSGSGTDFTLTISSLQPEDFATYYCQQFNSYPLTFGGGTKVEIKRSDAQPSVFLFQPSLDELHTGSASIVCILNDFYPKEVNVKWKVDGVVQNKGIQESTTEQNSKDSTYSLSSTLTMSSTEYQSHEKFSCEVTHKSLASTLVKSFNRSECQRE", "values": [
      {"measurement": "EC50", "result": "0.018 to 0.019", "unit": "nM"}
    ]}
  ]
}
